We go through one substance from paper PMC7532188.

The term stoichiometry N denotes a count of units in the complex or per binding partner.

The assay deals with His-tagged TASOR(354–633), tandem SPOC-DomI construct (human) (UniProt Q9UK61). Put plainly: SEC-MALS; complex co-expressed in E. coli and purified by Ni-affinity; Superdex 200 (10/300), 293 K, 20 mM HEPES pH 7.5, 0.5 M NaCl, 0.5 mM TCEP.
Sequence of UniProt Q9UK61 (Q9UK61 354-633): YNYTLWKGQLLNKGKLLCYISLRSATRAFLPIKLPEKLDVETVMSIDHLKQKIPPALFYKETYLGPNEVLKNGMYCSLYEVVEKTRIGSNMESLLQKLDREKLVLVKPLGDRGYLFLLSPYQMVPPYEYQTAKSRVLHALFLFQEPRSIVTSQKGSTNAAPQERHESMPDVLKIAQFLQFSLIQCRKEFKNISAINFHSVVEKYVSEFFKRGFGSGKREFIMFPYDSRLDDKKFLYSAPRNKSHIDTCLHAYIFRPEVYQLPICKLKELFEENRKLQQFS

“MPP8 C-terminus (residues 528–860) (from UniProt Q99549-1 528-860) (domain or fragment)”: the stoichiometry N was determined as 1.
